# Results published in IntAct's records for PubMed 29849149.
# B1: Beclin-1 (Mus musculus), O88597 (parent)
# chain: MEGSKASSSTMQVSFVCQRCSQPLKLDTSFKILDRVTIQELTAPLLTTAQAKPGETQEEEANSGEEPFIETRQDGVSRRFIPPARMMSTESANSFTLIGEASDGGTMENLSRRLKVTGDLFDIMSGQTDVDHPLCEECTDTLLDQLDTQLNVTENECQNYKRCLEILEQMNEDDSEQLQRELKELALEEERLIQELEDVEKNRKVVAENLEKVQAEAERLDQEEAQYQREYSEFKRQQLELDDELKSVENQVRYAQIQLDKLKKTNVFNATFHIWHSGQFGTINNFRLGRLPSVPVEWNEINAAWGQTVLLLHALANKMGLKFQRYRLVPYGNHSYLESLTDKSKELPLYCSGGLRFFWDNKFDHAMVAFLDCVQQFKEEVEKGETRFCLPYRMDVEKGKIEDTGGSGGSYSIKTQFNSEEQWTKALKFMLTNLKWGLAWVSSQFYNK
# Variants of: B1
# Details: with bcl2_mouse Bcl2, P10417
# bcl2_mouse Bcl2, P10417, sequence (P10417 whole entry): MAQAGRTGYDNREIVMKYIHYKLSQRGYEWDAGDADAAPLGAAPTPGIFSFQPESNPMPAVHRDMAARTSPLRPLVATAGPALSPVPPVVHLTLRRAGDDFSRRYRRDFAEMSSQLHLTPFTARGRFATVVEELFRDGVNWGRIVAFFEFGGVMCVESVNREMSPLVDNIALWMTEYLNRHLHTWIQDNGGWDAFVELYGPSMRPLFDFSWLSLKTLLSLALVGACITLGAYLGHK
row,effect of a mutation on the interaction,Variant
1,decreasing interaction strength,MEGSKASSSTMQVSFVCQRCSQPLKLDTSFKILDRVTIQELTAPLLTTAQAKPGETQEEEANSGEEPFIETRQDGVSRRFIPPARMMSTESANSFTLIGEASDGGTMENLSRRLKVTGDLADIMSGQTDVDHPLCEECTDTLLDQLDTQLNVTENECQNYKRCLEILEQMNEDDSEQLQRELKELALEEERLIQELEDVEKNRKVVAENLEKVQAEAERLDQEEAQYQREYSEFKRQQLELDDELKSVENQVRYAQIQLDKLKKTNVFNATFHIWHSGQFGTINNFRLGRLPSVPVEWNEINAAWGQTVLLLHALANKMGLKFQRYRLVPYGNHSYLESLTDKSKELPLYCSGGLRFFWDNKFDHAMVAFLDCVQQFKEEVEKGETRFCLPYRMDVEKGKIEDTGGSGGSYSIKTQFNSEEQWTKALKFMLTNLKWGLAWVSSQFYNK [F121A]
